Among the data in PMC6107515 are Kd, koff and kon values, retold here.

Where two headings read alike, the source gives them in different places.

Experiment [1] has as its target human complement Factor H (human) (UniProt P08603). As to the kind of experiment: SPR; Biacore X100; FH coupled to a CM4 chip, recombinant PspCs injected at five increasing concentrations (kinetic titration); PBS-P+ buffer; fitted with a 1:1 binding model.
Experiment [2] shares this target. Described as above. This is another data set of the same source.

Sequence of human complement Factor H (human) (P08603 19-1231): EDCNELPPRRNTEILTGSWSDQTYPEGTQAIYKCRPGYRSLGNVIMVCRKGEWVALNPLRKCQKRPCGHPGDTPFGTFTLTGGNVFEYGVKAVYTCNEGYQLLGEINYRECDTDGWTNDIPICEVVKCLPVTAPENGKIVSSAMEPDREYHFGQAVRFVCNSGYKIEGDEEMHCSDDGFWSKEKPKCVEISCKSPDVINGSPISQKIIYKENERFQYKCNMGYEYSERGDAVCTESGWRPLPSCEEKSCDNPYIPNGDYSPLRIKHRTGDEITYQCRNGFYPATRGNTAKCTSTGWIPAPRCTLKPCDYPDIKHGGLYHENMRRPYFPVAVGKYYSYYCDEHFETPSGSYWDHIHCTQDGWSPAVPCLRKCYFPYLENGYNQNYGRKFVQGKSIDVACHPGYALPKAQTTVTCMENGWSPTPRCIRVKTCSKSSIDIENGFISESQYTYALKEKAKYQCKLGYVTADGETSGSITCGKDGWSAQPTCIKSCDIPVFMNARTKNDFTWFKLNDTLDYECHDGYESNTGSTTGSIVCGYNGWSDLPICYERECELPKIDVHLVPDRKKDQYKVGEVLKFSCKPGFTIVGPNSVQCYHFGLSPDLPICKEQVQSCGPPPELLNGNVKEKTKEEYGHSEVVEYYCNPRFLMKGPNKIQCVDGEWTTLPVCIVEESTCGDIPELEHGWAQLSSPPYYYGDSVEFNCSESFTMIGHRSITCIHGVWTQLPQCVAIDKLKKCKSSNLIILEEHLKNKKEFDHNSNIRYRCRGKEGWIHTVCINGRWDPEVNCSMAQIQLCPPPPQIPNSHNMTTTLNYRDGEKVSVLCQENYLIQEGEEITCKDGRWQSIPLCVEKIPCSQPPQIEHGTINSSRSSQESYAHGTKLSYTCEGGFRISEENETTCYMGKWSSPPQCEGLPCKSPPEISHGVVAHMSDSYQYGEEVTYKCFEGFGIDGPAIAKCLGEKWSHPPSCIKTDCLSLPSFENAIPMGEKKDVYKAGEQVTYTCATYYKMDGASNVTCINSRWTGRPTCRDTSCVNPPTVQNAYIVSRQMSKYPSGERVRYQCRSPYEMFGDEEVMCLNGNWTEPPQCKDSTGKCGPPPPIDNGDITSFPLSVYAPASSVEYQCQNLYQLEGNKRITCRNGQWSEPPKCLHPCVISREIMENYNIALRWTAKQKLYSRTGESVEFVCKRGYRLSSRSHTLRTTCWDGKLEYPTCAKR

Turning to “recombinant PspC (D39) (domain or fragment)”, in experiment [1], the Kd was found to be 0.086 nM, the koff amounted to 4.3e-05 s⁻¹ and the kon is 480000 M⁻¹ s⁻¹. In addition, the Kd in experiment [2] worked out at 0.0885 nM.
